In article doi:10.1101/396861:

Molecular target: T1, AtHYL1-FL (HYL1/DRB1 full length) (Arabidopsis thaliana, UniProt O04492 1-419)
T1 sequence: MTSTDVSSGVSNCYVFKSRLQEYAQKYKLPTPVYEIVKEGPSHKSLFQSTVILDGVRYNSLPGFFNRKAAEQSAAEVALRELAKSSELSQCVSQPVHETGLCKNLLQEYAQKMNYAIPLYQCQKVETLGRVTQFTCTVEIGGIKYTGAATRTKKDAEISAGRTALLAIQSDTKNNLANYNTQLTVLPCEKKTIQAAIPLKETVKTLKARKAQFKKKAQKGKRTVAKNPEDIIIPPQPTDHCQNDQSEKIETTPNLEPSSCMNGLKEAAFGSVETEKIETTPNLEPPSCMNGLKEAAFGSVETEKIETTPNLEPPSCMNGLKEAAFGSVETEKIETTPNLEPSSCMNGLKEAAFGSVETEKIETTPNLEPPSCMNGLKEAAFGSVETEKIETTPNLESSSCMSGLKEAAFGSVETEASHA
Experiment: EMSA

GCCCTGCAACCGAGACCACGCTTATGGAGCCTGGGACGTGGTCTCGGTTG (structured_DNA) [50-nt DNA hairpin (dsDNA hairpin loop)]: binds.
